# Results as given in patent publication US20240270821A1, “GIP/GLP1/GCG TRI-RECEPTOR AGONISTS AND USES THEREOF” (priority 2023, published 2024).
# Starred links: 1 amine or outer side, 2 acyl side, 3 side chain; linkers in the order of their positions; H or OH if unused. Non-standard residues stand in square brackets, D forms with d. Groups on a side chain read outwards from the residue. No end group written: not given here. *: point of attachment. C18 diacid = O=C(O)CCCCCCCCCCCCCCCCC(=O)*; γGlu = O=C(O)[C@H](CCC(=O)[*:2])N[*:1]; αMe4Pal = C[C@](N)(Cc1ccncc1)C(=O)O; 4Pal = N[C@@H](Cc1ccncc1)C(=O)O; αMeL = CC(C)C[C@](C)(N)C(=O)O; Orn = NCCC[C@H](N)C(=O)O; Dab = NCC[C@H](N)C(=O)O; Aib = CC(C)(N)C(=O)O
# T1: human GIP receptor (human) (UniProt P48546)
# T1 sequence (looked up): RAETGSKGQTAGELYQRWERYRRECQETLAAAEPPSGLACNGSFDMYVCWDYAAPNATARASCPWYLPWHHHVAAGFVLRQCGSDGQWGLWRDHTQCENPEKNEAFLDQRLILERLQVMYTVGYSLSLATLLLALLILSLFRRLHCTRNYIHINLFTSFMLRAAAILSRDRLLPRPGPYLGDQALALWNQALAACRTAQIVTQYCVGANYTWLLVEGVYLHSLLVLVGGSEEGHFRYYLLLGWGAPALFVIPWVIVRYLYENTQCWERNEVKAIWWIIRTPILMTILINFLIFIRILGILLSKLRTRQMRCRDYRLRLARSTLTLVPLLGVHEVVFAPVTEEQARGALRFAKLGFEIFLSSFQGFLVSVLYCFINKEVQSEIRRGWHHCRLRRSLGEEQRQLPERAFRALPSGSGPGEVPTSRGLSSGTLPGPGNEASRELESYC
# Legend:
# Assay in all cases: cell-based or functional assay
# [1] = biological target: T1, human GIP receptor (human)
# [2] = biological target: human glucagon receptor (human) (UniProt P47871)
# [3] = biological target: hGLP-1R (Homo sapiens, UniProt P43220)
# Chain of hGLP-1R (P43220 24-463): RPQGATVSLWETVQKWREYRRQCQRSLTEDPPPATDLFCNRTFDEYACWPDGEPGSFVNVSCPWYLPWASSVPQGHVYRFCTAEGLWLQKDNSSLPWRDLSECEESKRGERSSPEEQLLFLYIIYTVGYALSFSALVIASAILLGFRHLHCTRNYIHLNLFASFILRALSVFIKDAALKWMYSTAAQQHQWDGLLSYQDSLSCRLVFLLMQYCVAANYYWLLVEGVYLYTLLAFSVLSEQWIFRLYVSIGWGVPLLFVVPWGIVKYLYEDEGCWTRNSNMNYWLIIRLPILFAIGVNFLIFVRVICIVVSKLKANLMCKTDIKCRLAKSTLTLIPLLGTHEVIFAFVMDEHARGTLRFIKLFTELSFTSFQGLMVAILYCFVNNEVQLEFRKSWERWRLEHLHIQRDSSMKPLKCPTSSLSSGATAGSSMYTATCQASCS
# Chain of human glucagon receptor (human) (P47871 26-477): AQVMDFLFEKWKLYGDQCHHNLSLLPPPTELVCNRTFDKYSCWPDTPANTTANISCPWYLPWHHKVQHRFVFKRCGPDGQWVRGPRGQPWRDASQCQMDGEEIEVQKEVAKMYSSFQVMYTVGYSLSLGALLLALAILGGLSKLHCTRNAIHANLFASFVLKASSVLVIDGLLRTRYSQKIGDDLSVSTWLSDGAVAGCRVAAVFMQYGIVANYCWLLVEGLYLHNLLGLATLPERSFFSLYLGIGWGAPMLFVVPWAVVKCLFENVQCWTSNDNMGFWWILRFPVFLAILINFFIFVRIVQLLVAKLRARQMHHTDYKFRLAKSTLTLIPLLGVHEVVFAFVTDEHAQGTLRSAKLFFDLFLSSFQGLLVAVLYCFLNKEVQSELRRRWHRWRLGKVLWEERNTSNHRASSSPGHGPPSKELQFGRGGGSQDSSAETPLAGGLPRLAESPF
Binder,Relative cAMP EC50 [1],cAMP Rel EC50 (1% HSA) [1],Relative cAMP EC50 [2],cAMP Rel EC50 (1% HSA) [2],Relative cAMP EC50 [3],cAMP Rel EC50 (1% HSA) [3]
YXQGTFTSDXSXXLDXKAQXAFIEYLIAGGPSSGAPPPSGSEE (Lys acylated γGlu-C18 diacid; non-natural residues; C-amide; synthetic construct; SITE 2: note = 2-Aminoisobutyric Acid; SITE 10: note = 3-(4-Pyridyl)-L-alanine; SITE 12: note = L-ornithine; SITE 13: note = alpha-methyl-leucine; SITE 16: note = L-ornithine; SITE 17: note = Lysine is chemically modified through conjugation of the epsilon-amino group of the Lys) [Example 1063],0.318 nM,26.6 nM,10.6 nM,2290 nM,6.96 nM,626 nM
YXQGTFTSDXSXXLDXKAQXAFIEYLLAGGPSSGAPPPSGSEE (non-natural residues; acylated Lys; C-terminal amide; synthetic construct; SITE 2: note = 2-Aminoisobutyric Acid; SITE 10: note = 3-(4-Pyridyl)-L-alanine; SITE 12: note = L-ornithine; SITE 13: note = alpha-methyl-leucine; SITE 16: note = L-ornithine; SITE 17: note = Lysine is chemically modified through conjugation of the epsilon-amino group of the Lys) [Example 1069],0.417 nM,39.5 nM,21.2 nM,2160 nM,8.87 nM,1290 nM
YXQGTFTSDXSXXLDXKAQXAFIEYLIAGGPSSGAPPPSGSEE (C-terminal amide; lysine acylated with (Glu)2-γ-Glu-C18 diacid; synthetic construct; SITE 2: note = 2-Aminoisobutyric Acid; SITE 10: note = 3-(4-Pyridyl)-L-alanine; SITE 12: note = L-ornithine; SITE 13: note = alpha-methyl-leucine; SITE 16: note = L-ornithine; SITE 17: note = Lysine is chemically modified through conjugation of the epsilon-amino group of the Lys) [Example 1062],0.726 nM,67.5 nM,8.77 nM,2380 nM,7.75 nM,
YXQGTFTSDXSQXLDXKAQXAFIEXLLEGGPSSGAPPPSGSEE (non-natural residues; lysine acylated γGlu-C18 diacid; C-terminal amide; synthetic construct; SITE 2: note = 2-Aminoisobutyric Acid; SITE 10: note = 3-(4-Pyridyl)-L-alanine; SITE 13: note = alpha-methyl-leucine; SITE 16: note = L-ornithine; SITE 17: note = Lysine is chemically modified through conjugation of the epsilon-amino group of the Lysine side chain with D-Glutami) [Example 1058],0.139 nM,45.6 nM,5.8 nM,1450 nM,4.48 nM,
YXQGTFTSDXSQXLDXKAQXAFIEXLIAGGPSSGAPPPSGSEE (non-natural residues; C18 diacid-γ-Glu acyl on Lys; C-terminal amide; synthetic construct; SITE 2: note = 2-Aminoisobutyric Acid; SITE 10: note = 3-(4-Pyridyl)-L-alanine; SITE 13: note = alpha-methyl-leucine; SITE 16: note = L-ornithine; SITE 17: note = Lysine is chemically modified through conjugation of the epsilon-amino group of the Lysine side chain with D-Glutami) [Example 1074],0.0745 nM,8.49 nM,22.8 nM,1990 nM,0.794 nM,101 nM
YXQGTFTSDXSXXLDXKAQXAFIEYLLAGGPSSGAPPPSGSEE (C-terminal amide; lysine acylated with (γ-Glu)2-C18 diacid; synthetic construct; SITE 2: note = 2-Aminoisobutyric Acid; SITE 10: note = 3-(4-Pyridyl)-L-alanine; SITE 12: note = L-ornithine; SITE 13: note = alpha-methyl-leucine; SITE 16: note = L-ornithine; SITE 17: note = Lysine is chemically modified through conjugation of the epsilon-amino group of the Lys) [Example 1068],0.211 nM,20.2 nM,4.8 nM,295 nM,11.6 nM,1330 nM
Y[Aib]QGTFTSD[4Pal]S[Dab][αMeL]LD[Orn]K([γGlu-γGlu-C18 diacid])AQ[Aib]AFIE[αMe4Pal]LLAGGPSSGAPPPEGSEE-NH2 [Example 1054],0.797 nM,79.4 nM,8.06 nM,1630 nM,9.53 nM,
"YXQGTFTSDXSQXLDXKAQXAFIQXLIEGGPSSGAPPPSGSEE (Aib, 4Pal, αMeL, Orn, Me4Pal, αMeY; acylated Lys; C-terminal amide; synthetic construct; SITE 2: note = 2-Aminoisobutyric Acid; SITE 10: note = 3-(4-Pyridyl)-L-alanine; SITE 13: note = alpha-methyl-leucine; SITE 16: note = L-ornithine; SITE 17: note = Lysine is chemically modified through conjugation of the epsilon-amino group of the Lysine side chain with D-Glutami) [Example 1072]",0.157 nM,9.94 nM,10.5 nM,914 nM,0.889 nM,95.1 nM
YXQGTFTSDXSQXLDXKAQXAFIEXLIEGGPSSGAPPPSGSEEE (acylated Lys e-γGlu-C18 diacid; non-natural residues; C-terminal amide; synthetic construct; SITE 2: note = 2-Aminoisobutyric Acid; SITE 10: note = 3-(4-Pyridyl)-L-alanine; SITE 13: note = alpha-methyl-leucine; SITE 16: note = L-ornithine; SITE 17: note = Lysine is chemically modified through conjugation of the epsilon-amino group of the Lysine side chain with D-Glutami) [Example 1071],0.261 nM,40.2 nM,23.5 nM,2990 nM,2.06 nM,425 nM
"YXQGTFTSDXSQXLDXKAQXAFIQXLIEGGPSSGAPPPSGSEEE (non-natural residues, acylated Lys (γGlu-C18 diacid), C-terminal amide; synthetic construct; SITE 2: note = 2-Aminoisobutyric Acid; SITE 10: note = 3-(4-Pyridyl)-L-alanine; SITE 13: note = alpha-methyl-leucine; SITE 16: note = L-ornithine; SITE 17: note = Lysine is chemically modified through conjugation of the epsilon-amino group of the Lysine side chain with D-Glutami) [Example 1073]",0.201 nM,15.7 nM,12.3 nM,1490 nM,1.09 nM,114 nM
Y[Aib]QGTFTSD[4Pal]S[Dab][αMeL]LD[Orn]K([γGlu-γGlu-C18 diacid])AQ[αMe4Pal]AFIE[αMe4Pal]LLAGGPSSGAPPPEGSEE-NH2 [Example 1055],0.366 nM,78.9 nM,1.88 nM,450 nM,14.6 nM,
